“Also recorded” adds a separate entry of the source. Values belong to the molecule of their own block, whether it stands above or below them. Peptide text beside a SMILES is read from it.
How the values were obtained:
[1] = test system: binary FGFR-Klotho complexes (FGFR1c, FGFR3c, or FGFR4); experiment: Co-immunoprecipitation based competition assay, HEK293-Klotho lysates; format: binding
Excerpt: Co-immunoprecipitation may also be used to determine that an agent specifically binds the binary FGFR-Klotho complex. One aspect of the present invention utilizes co-immunoprecipitation studies. Subconfluent cultures of a HEK293 cell line ectopically expressing the FLAG-tagged membrane-spanning form of murine Klotho were transfected with expression vectors for V5-tagged FGFR1c, FGFR3c, or FGFR4. Two days later, the cells were lysed, and FGFR-Klotho complexes were isolated from cell lysate using anti-V5 agarose beads. The beads were then incubated with either FGF23^180-251 or FGF23^28-251 alone, or with mixtures of FGF23^28-251 with either increasing FGF23^180-251 or increasing FGF23^180-205. Bead-bound proteins were resolved on SDS-polyacrylamide gels, transferred to nitrocellulose membranes, and labeled using antibodies to Klotho, FGF23, and V5 epitope tag.
In parallel, subconfluent HEK293-Klotho cells (Kurosu et al., “Regulation of Fibroblast Growth Factor-23 Signaling by Klotho,” J Biol Chem 281(10):6120-6123 (2006), which is hereby incorporated by reference in its entirety) were transfected with expression vectors for V5-tagged FGFR1c, FGFR3c, or FGFR4 (Kurosu et al., “Regulation of Fibroblast Growth Factor-23 Signaling by Klotho,” J Biol Chem 281(10):6120-6123 (2006), which is hereby incorporated by reference in its entirety) and binding of FGF23 proteins/peptides to Klotho-FGFR complexes isolated from cell lysate was analyzed. Two days later, the cells were lysed (Kurosu et al, “Suppression of Aging in Mice by the Hormone Klotho,” Science 309(5742):1829-1833 (2005), which is hereby incorporated by reference in its entirety), and FGFR-Klotho complexes were isolated from cell lysate using anti-V5 agarose beads (Sigma-Aldrich) (Kurosu et al., “Regulation of Fibroblast Growth Factor-23 Signaling by Klotho,” J Biol Chem 281(10):6120-6123 (2006), which is hereby incorporated by reference in its entirety). The beads were then incubated with either FGF23^180-251 (1 nM) or FGF23^28-251 (1 nM) alone, or with mixtures of FGF23^28-251 (1 nM) with either increasing FGF23^180-251 (2 to 76 nM) or increasing FGF23^180-205 (0.1 to 10 μM). Bead-bound proteins were resolved on SDS-polyacrylamide gels, transferred to nitrocellulose membranes, and labeled using antibodies to Klotho (KM2119, (Kato et al., “Establishment of the Anti-Klotho Monoclonal Antibodies and Detection of Klotho Protein in Kidneys,” Biochemical Biophysical Res Communications 267(2):597-602 (2000), which is hereby incorporated by reference in its entirety)), FGF23 (R&D systems), and V5 epitope tag (Invitrogen).

NaPi-2C = NaPi-2C protein abundance in apical brush border membrane of rat kidney; format: in vivo; conditions: IV 0.1 μg kg body weight^−1, 3 h post injection, vs vehicle
Description: Immunoblot analysis of NaPi-2A and NaPi-2C protein abundance in renal cortex tissue and isolated brush border membrane vesicles (BBMV), and NaPi-2A immunostaining of renal tissue were performed as described (Bacic et al., “Activation of Dopamine Dl-like Receptors Induces Acute Internalization of the Renal Na^+/phosphate Cotransporter NaPi-IIa in Mouse Kidney and OK cells,” Am J Physiol Renal Physiol 288(4):F740-747 (2005), Loffing et al., “Renal Na/H Exchanger NHE-3 and Na—PO4 Cotransporter NaPi-2 Protein Expression in Glucocorticoid Excess and Deficient States,” J Am Soc Nephrol 9(9):1560-1567 (1998), Moe et al., “Dietary NaCl Modulates Na(+)-H+ Antiporter Activity in Renal Cortical Apical Membrane Vesicles,” Am J Physiol 260(1 Pt 2):F130-137 (1991), which are hereby incorporated by reference in their entirety).
For immunoblot, rat kidney cortices were dissected and homogenized, and BBMV were isolated (Loffing et al., “Renal Na/H Exchanger NHE-3 and Na—PO4 Cotransporter NaPi-2 Protein Expression in Glucocorticoid Excess and Deficient States,” J Am Soc Nephrol 9(9):1560-1567 (1998), Moe et al., “Dietary NaCl Modulates Na(+)-H+ Antiporter Activity in Renal Cortical Apical Membrane Vesicles. Am J Physiol 260(1 Pt 2):F130-137 (1991), which are hereby incorporated by reference in their entirety). […]

[2] = co-immunoprecipitation competition

Molecule: CSCC[C@H](NC(=O)[C@H](CCCNC(=N)N)NC(=O)[C@H](C)NC(=O)[C@H](CCCNC(=N)N)NC(=O)[C@@H]1CCCN1C(=O)[C@H](CCCCN)NC(=O)[C@H](CC(C)C)NC(=O)[C@@H](NC(=O)[C@H](CC(N)=O)NC(=O)[C@H](CC(C)C)NC(=O)[C@@H]1CCCN1C(=O)[C@H](CC(=O)O)NC(=O)[C@H](CCCNC(=N)N)NC(=O)[C@H](CCC(=O)O)NC(=O)[C@H](CO)NC(=O)[C@H](CC(=O)O)NC(=O)[C@H](CC(=O)O)NC(=O)[C@H](CCC(=O)O)NC(=O)[C@H](C)NC(=O)[C@@H](N)CO)C(C)C)C(=O)N[C@H](C(=O)N1CCC[C@H]1C(=O)N[C@@H](C)C(=O)N1CCC[C@H]1C(=O)N[C@@H](C)C(=O)N[C@@H](CO)C(=O)O)[C@@H](C)O [FGF23^180-205] (H-SAEDDSERDPLNVLKPRARMTPAPAS-OH; N-terminus and C-terminus assumed)
inhibition of binding (co-precipitation) of FGF23^28-251 with binary FGFR-Klotho complexes [1, 2]: able to inhibit binding; also recorded: inhibited co-precipitation
reduced potency compared to the FGF23^180-251 peptide [1, 2]: over 100 fold

molar excess that completely blocked binding of FGF23^28-251 to the FGFR-Klotho complex ([1]; FGF23^28-251 1 nM): 76 fold molar excess
inhibition of binding (co-precipitation) of FGF23^28-251 with binary FGFR-Klotho complexes [1, 2]: can inhibit binding
B1: FGF23^180-251: 72-amino acid C-terminal tail of human FGF23 (S180 to I251), expressed in E. coli (protein, listed as Homo sapiens)
chain: SAEDDSERDPLNVLKPRARMTPAPASCSQELPSAEDNSPMASDPLGVVRGGRVNTHAGGTGPEGCRPFAKFI
NaPi-2C protein expression in the apical brush border membrane (NaPi-2C): increased

B2: FGF23^28-251: human FGF23 (A28 to I251), bioactive full-length ligand expressed in E. coli (protein, listed as Homo sapiens)
chain: ASPLLGSSWGGLIHLYTATARNSYHLQIHKNGHVDGAPHQTIYSALMIRSEDAGFVVITGVMSRRYLCMDFRGNIFGSHYFDPENCRFQHQTLENGYDVYHSPQYHFLVSLGRAKRAFLPGMNPPPYSQFLSRRNEIPLIHFNTPIPRRHTRSAEDDSERDPLNVLKPRARMTPAPASCSQELPSAEDNSPMASDPLGVVRGGRVNTHAGGTGPEGCRPFAKFI
NaPi-2C protein expression in the apical brush border membrane (NaPi-2C): diminished
